Binding result and Kd data for three molecules are collected here from patent US6623738 (University of California, dated 2003).

First the molecules themselves.
B3: rat semaphorin receptor 1 (rSR1), full length, expressed on cells (receptor)
chain: FRSDKCGGTIKIENPGYLTSPGYPHSYHPSEKCEWLIQAPEPYQRIMINFNPHFDLEDRDCKYDYVEVIDGENEGGRLWGKFCGKIAPSPVVSSGPFLFIKFVSDYETHGAGFSIRYEIFKRGPECSQNYTAPTGVIKSPGFPEKYPNSLECTYIIFAPKMSEIILEFESFDLEQDSNPPGGMFCRYDRLEIWDGFPEVGPHIGRYCGQKTPGRIRSSSGILSMVFYTDSAIAKEGFSANYSVLQSSISEDFKCMEALGMESGEIHSDQITASSQYGTNWSVERSRLNYPENGWTPGEDSYREWIQVDLGLLRFVTAVGTQGAISKETKKKYYVKTYRVDISSNGEDWITLKEGNKAIIFQGNTNPTDVVFGVFPKPLITRFVRIKPASWETGISMRFEVYGCKITDYPCSGMLGMVSGLISDSQITASNQGDRNWMPENIRLVTSRTGWALPPSPHPYINEWLQVDLGDEKIVRGVIIQGGKHRENKVFMRKFKIAYSNNGSDWKMIMDDSKRKAKSFEGNNNYDTPELRAFTPLSTRFIRIYPERATHSGLGLRMELLGCEVEVPTAGPTTPNGNPVDECDDDQANCHSGTGDDFQLTGGTTVLATEKPTIIDSTIQSEFPTYGFNCEFGWGSHKTFCHWEHDSHAQLRWRVLTSKTGPIQDHTGDGNFIYSQADENQKGKVARLVSPVVYSQSSAHCMTFWYHMSGSHVGTLRVKLHYQKPEEYDQLVWMVVGHQGDHWKEGRVLLHKSLKLYQVIFEGEIGKGNLGGIAVDDISINNHIPQEDCAKPTDLDKKNTEIKIDETGSTPGYEEGKGDKNISRKPGNVLKTLDPILITIIAMSALGVLLGAVCGVVLYCACWHNGMSERNLSALENYNFELVDGVKLKKDKLNPHSNYSEA
notes: also called rat SR1; p28

Values joined by “and” are separate entries in the source; they are usually repeats but may differ in a detail not shown here. Identical values can stand only once.

The target in test [1] is T1, mouse neuropilin-2(a22), myc-tagged, expressed in COS-7 cells (mouse, UniProt O35375 21-931).
T1 construct: also called SR2(a)22
T1 sequence: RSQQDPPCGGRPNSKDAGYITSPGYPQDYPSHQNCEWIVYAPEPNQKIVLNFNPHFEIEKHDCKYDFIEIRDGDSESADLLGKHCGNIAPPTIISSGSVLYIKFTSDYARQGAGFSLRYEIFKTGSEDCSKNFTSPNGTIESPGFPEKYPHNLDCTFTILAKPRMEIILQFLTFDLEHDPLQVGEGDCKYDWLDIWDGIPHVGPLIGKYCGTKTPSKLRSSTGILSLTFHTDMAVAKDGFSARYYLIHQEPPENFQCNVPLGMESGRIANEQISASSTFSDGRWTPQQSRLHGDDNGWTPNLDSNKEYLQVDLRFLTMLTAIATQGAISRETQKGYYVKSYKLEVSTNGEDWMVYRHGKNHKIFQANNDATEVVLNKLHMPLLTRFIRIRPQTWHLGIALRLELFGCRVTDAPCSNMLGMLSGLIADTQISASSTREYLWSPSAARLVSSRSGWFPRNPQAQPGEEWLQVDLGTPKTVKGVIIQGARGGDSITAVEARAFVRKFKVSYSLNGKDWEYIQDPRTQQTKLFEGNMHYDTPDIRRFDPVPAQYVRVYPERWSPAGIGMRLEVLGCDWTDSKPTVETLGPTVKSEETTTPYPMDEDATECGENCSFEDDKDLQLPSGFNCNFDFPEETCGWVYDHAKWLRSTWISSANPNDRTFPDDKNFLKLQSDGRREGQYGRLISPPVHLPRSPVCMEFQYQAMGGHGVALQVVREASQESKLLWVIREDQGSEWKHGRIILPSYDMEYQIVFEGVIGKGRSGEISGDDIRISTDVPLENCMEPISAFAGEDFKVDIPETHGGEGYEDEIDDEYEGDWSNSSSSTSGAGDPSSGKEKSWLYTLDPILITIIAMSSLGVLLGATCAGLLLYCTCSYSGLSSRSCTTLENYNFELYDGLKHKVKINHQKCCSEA
Put plainly: AP fusion binding to transfected COS cells.

Test [2] has as its target T2, mouse neuropilin-2(a5), myc-tagged, expressed in COS-7 cells (mouse, UniProt O35375 21-931).
T2 construct: also called a5 isoform of neuropilin-2; SR2(a)5
T2 sequence: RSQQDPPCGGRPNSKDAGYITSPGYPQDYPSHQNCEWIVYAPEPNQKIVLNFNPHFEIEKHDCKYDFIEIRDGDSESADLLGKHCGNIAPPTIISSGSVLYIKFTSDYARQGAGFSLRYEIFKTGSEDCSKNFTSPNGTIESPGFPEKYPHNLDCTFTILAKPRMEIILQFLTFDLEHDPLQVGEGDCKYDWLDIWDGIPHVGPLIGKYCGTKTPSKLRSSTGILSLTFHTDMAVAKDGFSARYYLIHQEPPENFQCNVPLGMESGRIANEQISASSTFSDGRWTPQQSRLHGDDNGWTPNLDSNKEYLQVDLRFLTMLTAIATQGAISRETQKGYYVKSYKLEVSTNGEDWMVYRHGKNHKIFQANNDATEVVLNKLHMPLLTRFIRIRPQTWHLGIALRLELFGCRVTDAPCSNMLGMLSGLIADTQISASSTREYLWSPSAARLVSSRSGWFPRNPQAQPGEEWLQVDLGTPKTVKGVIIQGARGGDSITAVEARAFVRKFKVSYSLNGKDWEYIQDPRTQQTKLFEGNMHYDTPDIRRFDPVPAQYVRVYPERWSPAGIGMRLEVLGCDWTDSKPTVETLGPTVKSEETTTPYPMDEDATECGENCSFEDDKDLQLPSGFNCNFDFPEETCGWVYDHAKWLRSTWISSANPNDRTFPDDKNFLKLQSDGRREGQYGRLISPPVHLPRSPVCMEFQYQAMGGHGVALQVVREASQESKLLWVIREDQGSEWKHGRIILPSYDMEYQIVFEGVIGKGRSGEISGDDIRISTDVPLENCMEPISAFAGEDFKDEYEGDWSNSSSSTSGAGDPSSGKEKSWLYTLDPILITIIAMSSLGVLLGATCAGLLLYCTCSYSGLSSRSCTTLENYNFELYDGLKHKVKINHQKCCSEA
The test can be described thus: AP fusion binding to transfected COS cells.

In test [3] the target is T3, mouse neuropilin-2(a0), myc-tagged, expressed in COS-7 cells (mouse, UniProt O35375 21-931).
T3 construct: also called SR2(a)0; m-npn-2
T3 sequence: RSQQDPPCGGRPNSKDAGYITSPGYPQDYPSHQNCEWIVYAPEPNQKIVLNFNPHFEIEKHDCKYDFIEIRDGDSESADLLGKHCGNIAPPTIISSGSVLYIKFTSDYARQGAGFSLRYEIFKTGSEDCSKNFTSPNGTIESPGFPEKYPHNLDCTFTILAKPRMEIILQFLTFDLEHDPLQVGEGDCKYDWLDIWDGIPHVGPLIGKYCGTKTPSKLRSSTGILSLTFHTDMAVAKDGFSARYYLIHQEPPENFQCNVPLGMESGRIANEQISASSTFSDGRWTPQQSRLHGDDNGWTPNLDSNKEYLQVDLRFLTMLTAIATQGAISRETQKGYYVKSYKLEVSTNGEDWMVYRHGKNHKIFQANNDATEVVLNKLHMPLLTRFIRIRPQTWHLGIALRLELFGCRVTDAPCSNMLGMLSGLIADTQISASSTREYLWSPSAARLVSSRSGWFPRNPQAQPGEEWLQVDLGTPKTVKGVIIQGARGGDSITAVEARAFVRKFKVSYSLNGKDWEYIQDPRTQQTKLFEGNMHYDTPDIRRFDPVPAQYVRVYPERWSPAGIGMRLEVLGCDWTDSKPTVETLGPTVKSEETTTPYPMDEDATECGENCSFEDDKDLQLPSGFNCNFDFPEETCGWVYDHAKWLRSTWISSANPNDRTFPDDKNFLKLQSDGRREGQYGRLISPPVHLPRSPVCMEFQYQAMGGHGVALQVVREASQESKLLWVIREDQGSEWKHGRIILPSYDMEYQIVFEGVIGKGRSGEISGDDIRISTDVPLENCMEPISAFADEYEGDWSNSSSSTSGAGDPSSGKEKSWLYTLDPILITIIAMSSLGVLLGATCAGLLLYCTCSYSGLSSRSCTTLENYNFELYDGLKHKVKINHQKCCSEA
The test can be described thus: AP fusion binding to transfected COS cells.

In test [4] the target is B3. Put plainly: equilibrium binding of AP fusion to 293-EBNA cells stably expressing rat SR1, Hill fit.
In test [5] the target is SemaIII-AP fusion protein (full-length Sema III fused at its carboxy terminus to alkaline phosphatase). The description is as above.
The target in test [6] is AP fusion protein comprising just the semaphorin domain of SemaIII (AP-S). Described as above.

B1: AP fusion with the ectodomain of Sema VIa (ligand, UniProt O35464 19-649, looked up)
chain: GFPEDSEPISISHGNYTKQYPVFVGHKPGRNTTQRHRLDIQMIMIMNRTLYVAARDHIYTVDIDTSHTEEIYCSKKLTWKSRQADVDTCRMKGKHKDECHNFIKVLLKKNDDTLFVCGTNAFNPSCRNYRVDTLETFGDEFSGMARCPYDAKHANIALFADGKLYSATVTDFLAIDAVIYRSLGDSPTLRTVKHDSKWLKEPYFVQAVDYGDYIYFFFREIAVEYNTMGKVVFPRVAQVCKNDMGGSQRVLEKQWTSFLKARLNCSVPGDSHFYFNILQAVTDVIRINGRDVVLATFSTPYNSIPGSAVCAYDMLDIANVFTGRFKEQKSPDSTWTPVPDERVPKPRPGCCAGSSSLEKYATSNEFPDDTLNFIKTHPLMDEAVPSIINRPWFLRTMVRYRLTKIAVDNAAGPYQNHTVVFLGSEKGIILKFLARIGSSGFLNGSLFLEEMNVYNPEKCSYDGVEDKRIMGMQLDRASGSLYVAFSTCVIKVPLGRCERHGKCKKTCIASRDPYCGWVRESGSCAHLSPLSRLTFEQDIERGNTDGLGDCHNSFVALNGHASSLYPSTTTSDSASRDGYESRGGMLDWNDLLEAPGSTDPLGAVSSHNHQDKKGVIRESYLKSNDQLVPVT
notes: extracellular domain; also called Sema VIa ectodomain; not shown: alkaline phosphatase (AP) reporter
As for B1, the binding result in test [1], in test [2] and in test [3] was “no binding” throughout.

B2: AP fusion protein comprising only the C domain of SemaIII (AP-C) (ligand)
chain: IIPVEEENPDFWNREAAEALGAAKKLQPAQTAAKNLIIFLGDGMGVSTVTAARILKGQKKDKLGPEIPLAMDRFPYVALSKTYNVDKHVPDSGATATAYLCGVKGNFQTIGLSAAARFNQCNTTRGNEVISVMNRAKKAGKSVGVVTTTRVQHASPAGTYAHTVNRNWYSDADVPASARQEGCQDIATQLISNMDIDVILGGGRKYMFRMGTPDPEYPDDYSQGGTRLDGKNLVQEWLAKRQGARYVWNRTELMQASLDPSVTHLMGLFEPGDMKYEIHRDSTLDPSLMEMTEAALRLLSRNPRGFFLFVEGGRIDHGHHESRAYRALTETIMFDDAIERAGQLTSEEDTLSLVTADHSHVFSFGGYPLRGSSIFGLAPGKARDRKAYTVLLYGNGPGYVLKDGARPDVTESESGSPEYRQQSAVPLDEETHAGEDVAVFARGPQAHLVHGVQEQTFIAHVMAFAACLEPYTACDLAPPAGTTDAAHPGGFIQTLLKVTLEVIDTEHLEELLHKDDDGDGSKTKEMSNSMTPSQKVWYRDFMQLINHPNLNTMDEFCEQVWKRDRKQRRQRPGHTPGNSNKWKHLQENKK
As to B2, the Kd – broadly, the free concentration of one partner at which half of the binding sites on the other are occupied at equilibrium, for simple one-to-one binding – in test [4] was 0.84 nM and 0.0672 µg/mL.
Regarding B3, the Kd in test [5] is 0.0553 µg/mL and 0.325 nM; in test [6], 0.219 µg/mL and 1.45 nM.
